According to US20220396616A1 (SANYOU BIOPHARMACEUTICALS, published 2022):
Changes are numbered by the printed parent chain.

B1: A18-1-42 (VHH)
VHH: EVQVVESGGGLVQPGGSLRLSCAASGSILHIPVMSWYRQAPGKQRELVAGISTGGTTNYGDSVKGRFTISRDNAKNTVYLQMNSLKPEDTAAYYCNVLVVSGIGSHLEVWG
notes: also called candidate nanobody A18-1-42
B2: A18-1-44 (VHH)
VHH: B1 VHH with V4L, L29F, H30N, I31L, A92V, V100I
B3: A293-34 (VHH)
VHH: B1 VHH with E1Q, V4L, V5Q, S27T, I28F, L29F, H30N, S35G, A92V, V100I
notes: also called candidate nanobody A293-34
B4: A-2-3 (VHH)
VHH: B1 VHH with V4L, L29F, H30N, I31L, A92V
B5: A18-1-63 (VHH)
VHH: B1 VHH with E1Q, V4L, V5Q, L29F, H30N, S35G, A92V, H106T
notes: also called candidate nanobody A18-1-63
B6: A293-55 (VHH)
VHH: B1 VHH with E1Q, V4L, L11S, L29F, P32V, S35G, I51M, A92V, V100I
B7: A18-1-45 (VHH)
VHH: B1 VHH with V4L, V5Q, S27I, L29F, H30N, A92V
B8: A18-1-6 (VHH)
VHH: B1 VHH with V5Q, L29F, H30N, N76T, A92V, V100I
B9: A18-1-65 (VHH)
VHH: B1 VHH with V4L, V5Q, S27T, L29F, H30N, I31L, K75R, A92V
B10: A18-1-62 (VHH)
VHH: B1 VHH with E1Q, V4L, S27T, L29F, H30N, S35G, A92V, V100I
B11: A18-1-48 (VHH)
VHH: EVQLVESGGGLVQPGGSLRLSCAASGNIFRIDTMGWYRQAPGKQREFVAGISRGGSTNYAHSVKERFTISRDNAKNTMYLQMNSLKSEDTAGYYCNAQAWDPGTIRYLEVWGQGTLVTVSA
B12: A293-82 (VHH)
VHH: B11 VHH with L4V, G35V, F47L, S56T, E65G, G92T, P102V
B13: A18-1-78 (VHH)
VHH: B11 VHH with V5Q
B14: A18-1-50 (VHH)
VHH: B11 VHH with L4V, V5Q, F47L, S56T, N58T, I105F
B15: A18-1-75 (VHH)
VHH: B11 VHH with G35V, F47L, S56T, E65G, G92T, P102V
B16: A-2-4 (VHH)
VHH: B11 VHH with L4V, V5Q, P14A, G16T, F47L, S56T, N58T, I105F
notes: also called candidate nanobody A-2-4
B17: A18-1-70 (VHH)
VHH: B11 VHH with E1Q, F47L, S56T, N58T, I105F
B18: A18-1-64 (VHH)
VHH: B11 VHH with E1Q, A121S
B19: humanized antibody NA3S-H1 (Fc fusion)
chain: QVQLVESGGGLVQPGGSLRLSCAASGSIFNIPVMGWYRQAPGKQRELVAGISTGGTTNYGDSVKGRFTISRDNAKNTVYLQMNSLKPEDTAVYYCNVLVVSGIGSTLEVWGQGTLVTVSS
notes: Humanized form of NA3-S; also called candidate antibody NA3S-H1; humanized molecule NA3S-H1; not shown: a human IgG Fc is implied (detected with anti-human IgG Fc)
B20: IMAB362 antibody (antibody, V domains shown)
VH: QVQLQQPGAELVRPGASVKLSCKASGYTFTSYWINWVKQRPGQGLEWIGNIYPSDSYTNYNQKFKDKATLTVDKSSSTAYMQLSSPTSEDSAVYYCTRSWRGNSFDYWGQGTTLTVSS
VL: DIVMTQSPSSLTVTAGEKVTMSCKSSQSLLNSGNQKNYLTWYQQKPGQPPKLLIYWASTRESGVPDRFTGSGSGTDFTLTISSVQAEDLAVYYCQNDYSYPFTFGSGTKLEIKR

target: T1, human CLDN18.2 (human); test: flow cytometry, phage supernatant on hCLDN18.2-expressing HEK293T cells
T1 construct: also called hCLDN18.2; huCLDN18.2
Text: (§1) firstly, 1×10⁵ of human CLDN18.2-HEK293T and human CLDN18.1-HEK293 cells were taken, respectively and centrifuged at a low speed of 500 g, and the supernatant was removed.

Row | Binder | mean fluorescence intensity [MFI]
1 | B1 | 396000
2 | B2 | 390000
3 | B3 | 454000
4 | B4 | 570000
5 | B5 | 385000
6 | B6 | 392000
7 | B7 | 369000
8 | B8 | 396000
9 | B9 | 428000
10 | B10 | 372000
11 | B11 | 357000
12 | B12 | 442000
13 | B13 | 385000
14 | B14 | 403000
15 | B15 | 387000
16 | B16 | 592000
17 | B17 | 402000
18 | B18 | 406000

target: T2, human CLDN18.1 (human, UniProt P56856 1-261); test: flow cytometry on CLDN18.1-HEK293 cells, different concentrations
T2 construct: Full length, overexpressed on HEK293 cells; also called hCLDN18.1; human CLDN18.1-HEK293
T2 sequence (P56856 whole entry): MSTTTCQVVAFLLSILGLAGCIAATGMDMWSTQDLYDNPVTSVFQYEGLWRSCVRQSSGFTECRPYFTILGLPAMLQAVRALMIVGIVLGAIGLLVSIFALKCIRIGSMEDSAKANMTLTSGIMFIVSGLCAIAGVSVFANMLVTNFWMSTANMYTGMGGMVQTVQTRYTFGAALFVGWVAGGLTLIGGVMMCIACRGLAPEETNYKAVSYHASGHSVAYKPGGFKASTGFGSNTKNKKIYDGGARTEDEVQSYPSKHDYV
Experimental: Therefore, in this example, different concentrations of the antibody (including the high concentration of 100 μg/mL) were used to incubate with CLDN18.1-HEK293 in vitro. […] The antibody at different concentrations and target cells CLDN18.1-HEK293 were incubated at 4° C. for 1 h and then rinsed three times with the FACS buffer mentioned above. 0.5 μg (0.5 mg/ml) of PE-labelled goat anti-human IgG Fc antibody (Abcam, ab98596) was added and incubated at 4° C. for another 1 h. […] The binding strength and the positive rate of cell binding were recorded.

Row | Binder | binding result
19 | B19 | no binding (tested: 100 µg/mL)

target: T1, human CLDN18.2; test: cell-based or functional assay

Row | Binder | CDC cell killing on CLDN18.2-KATOIII cells, EC50 [nM] | CDC cell killing on CLDN18.2-KATOIII cells, EC50 (run with NA3S-H1) [nM] | CDC cell killing on human CLDN18.2-HEK293T cells, EC50 [nM] | CDC cell killing on human CLDN18.2-KATOIII tumor cells, EC50 (run with NA1-S, FIG. 6b) [nM] | CDC cell killing on human CLDN18.2-KATOIII tumor cells, EC50 (run with NA3-S, FIG. 7d) [nM] | Fab-ZAP cell killing (internalization) on CLDN18.2-HEK293T cells, IC50 (run with NA1-S) [nM] | Fab-ZAP cell killing (internalization) on CLDN18.2-HEK293T cells, IC50 (run with NA3-S) [nM]
20 | B19 | 10.4 | – | – | – | – | – | –
21 | B20 | – | 149 | 0.936 | 50.9 | 85.8 | 0.24 | 0.32

target: T2, human CLDN18.1; test: flow cytometry, phage supernatant on human CLDN18.1-HEK293 cells
Text: as §1

Row | Binder | binding result
22 | B1 | no binding
23 | B2 | no binding
24 | B3 | no binding
25 | B4 | no binding
26 | B5 | no binding
27 | B6 | no binding
28 | B7 | no binding
29 | B8 | no binding
30 | B9 | no binding
31 | B10 | no binding

target: T2, human CLDN18.1; test: flow cytometry, phage supernatant on hCLDN18.1-expressing HEK293 cells
Text: as §1

Row | Binder | mean fluorescence intensity [MFI]
32 | B1 | 1010
33 | B2 | 3740
34 | B3 | 2430
35 | B4 | 3260
36 | B5 | 175
37 | B6 | 3340
38 | B7 | 4750
39 | B8 | 1970
40 | B9 | 5890
41 | B10 | 2940
42 | B11 | 3450
43 | B12 | 4320
44 | B13 | 3680
45 | B14 | 6040
46 | B15 | 3890
47 | B16 | 4330
48 | B17 | 6230
49 | B18 | 3500

target: T1, human CLDN18.2; test: flow cytometry, phage supernatant; hCLDN18.2 cells against hCLDN18.1 cells
Text: as §1

Row | Binder | ratio of mean fluorescence intensities on hCLDN18.2 and hCLDN18.1 cells
50 | B1 | 392
51 | B2 | 104
52 | B3 | 187
53 | B4 | 175
54 | B5 | 2200
55 | B6 | 117
56 | B7 | 78
57 | B8 | 201
58 | B9 | 73
59 | B10 | 126
60 | B11 | 103
61 | B12 | 102
62 | B13 | 105
63 | B14 | 67
64 | B15 | 99
65 | B16 | 137
66 | B17 | 65
67 | B18 | 116
